Substitutions are numbered along the chain they refer to. Names and notes keep the numbering of the source.
B1: GST-CrkII (recombinant chicken CrkII, wild type) (natural protein, UniProt Q04929 1-305, looked up)
chain: MAGQFDSEDRGSWYWGRLSRGDAVSLLQGQRHGTFLVRDSGSIPGDFVLSVSESSRVSHYIVNSLGPAGGRRAGGEGPGAPGLNPTRFRIGDQEFDSLPSLLEFYKIHYLDTTTLIEPVSRSRQNSGVILRQEEVEYVRALFDFNGNDDEDLPFKKGDILKIRDKPEEQWWNAEDMDGKRGMIPVPYVEKCRPSSASVSTLTGGNQDSSHPQPLGGPEPGPYAQPSINTPLPNLQNGPFYARVIQKRVPNAYDKTALALEVGELVKVTKINMSGQWEGECNGKRGHFPFTHVRLLDQQNPDEDFS
B2: GST-CrkCSH3 (CrkII W276K, mutation at the C-terminal SH3 domain) (natural protein, chicken, UniProt Q04929 1-305, looked up)
chain: B1 chain with W276K
B3: GST-CrkSH2 (CrkII R38K, mutation at the N-terminal SH2 domain) (natural protein, chicken, UniProt Q04929 1-305, looked up)
chain: B1 chain with R38K

Target: proline-rich tyrosine kinase 2 (Pyk2) (UniProt Q14289 1-1009)
Test: pull-down

Sequence of proline-rich tyrosine kinase 2 (Pyk2) (Q14289 whole entry): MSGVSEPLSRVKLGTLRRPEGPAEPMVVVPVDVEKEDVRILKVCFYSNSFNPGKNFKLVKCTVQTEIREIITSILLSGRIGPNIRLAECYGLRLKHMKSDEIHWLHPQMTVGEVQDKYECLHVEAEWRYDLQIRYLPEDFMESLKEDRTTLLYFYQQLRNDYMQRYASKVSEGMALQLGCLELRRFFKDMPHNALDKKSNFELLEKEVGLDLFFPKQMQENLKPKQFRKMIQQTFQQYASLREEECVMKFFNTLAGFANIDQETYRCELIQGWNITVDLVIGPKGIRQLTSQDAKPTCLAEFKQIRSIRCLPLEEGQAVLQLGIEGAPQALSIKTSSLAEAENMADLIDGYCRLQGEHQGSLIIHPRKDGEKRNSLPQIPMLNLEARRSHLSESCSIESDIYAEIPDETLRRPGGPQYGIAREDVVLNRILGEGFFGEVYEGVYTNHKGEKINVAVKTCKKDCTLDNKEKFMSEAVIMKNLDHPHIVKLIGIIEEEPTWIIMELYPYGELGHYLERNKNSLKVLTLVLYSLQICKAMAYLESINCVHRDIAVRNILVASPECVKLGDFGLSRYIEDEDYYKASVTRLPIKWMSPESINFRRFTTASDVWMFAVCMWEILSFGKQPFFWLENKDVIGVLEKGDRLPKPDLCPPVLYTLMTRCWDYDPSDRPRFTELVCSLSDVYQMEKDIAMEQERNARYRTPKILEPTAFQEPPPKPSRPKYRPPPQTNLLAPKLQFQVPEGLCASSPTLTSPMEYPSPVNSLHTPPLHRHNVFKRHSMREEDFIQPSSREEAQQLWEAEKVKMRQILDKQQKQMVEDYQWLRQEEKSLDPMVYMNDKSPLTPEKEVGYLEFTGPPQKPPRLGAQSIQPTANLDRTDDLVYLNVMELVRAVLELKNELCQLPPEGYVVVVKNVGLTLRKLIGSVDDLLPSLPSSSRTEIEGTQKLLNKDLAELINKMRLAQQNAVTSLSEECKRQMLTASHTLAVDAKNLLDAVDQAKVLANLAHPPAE

B1 and B2 are within error of each other in Kd: 150 ± 30 nM for the first, 134 ± 34 nM for the second.

In the case of B3, the Kd is reported as 508 ± 158 nM.

Source: article PMC8693953 (Molecular Biology of the Cell, 2021)
